Laboratory results: patent publication US20160144027A1 (SAMSUNG ELECTRONICS, published 2016)

Target: T1, human c-Met/Fc fusion protein (R&D Systems) (human, UniProt P08581 25-932)
T1 construct: Purchased reagent coated on ELISA plates; also called human c-Met/Fc protein; not shown: Fc part of the purchased fusion
Assay: ELISA, hybridoma culture on plate-coated human c-Met/Fc fusion protein (2 ug/mL)
Procedure: Human c-Met/Fc fusion protein was seeded in an amount of 50 μL (2 μg/mL)/well to microtiter plates and allowed to adhere to the surface of each well. The antibody that remained unbound was removed by washing.
The hybridoma cell culture obtained in Reference Example 1.1.2 was added in an amount of 50 μL to each well of the plates and incubated for 1 hour. The cells remaining unreacted were washed out with a sufficient amount of Tris-buffered saline and Tween 20 (TBST). Goat anti-mouse IgG-horseradish peroxidase (HRP) was added to the plates and incubated for 1 hour at room temperature. The plates were washed with a sufficient amount of TBST, followed by reacting the peroxidase with a substrate (OPD). Absorbance at 450 nm was measured on an ELISA reader.

T1 sequence (P08581 25-932): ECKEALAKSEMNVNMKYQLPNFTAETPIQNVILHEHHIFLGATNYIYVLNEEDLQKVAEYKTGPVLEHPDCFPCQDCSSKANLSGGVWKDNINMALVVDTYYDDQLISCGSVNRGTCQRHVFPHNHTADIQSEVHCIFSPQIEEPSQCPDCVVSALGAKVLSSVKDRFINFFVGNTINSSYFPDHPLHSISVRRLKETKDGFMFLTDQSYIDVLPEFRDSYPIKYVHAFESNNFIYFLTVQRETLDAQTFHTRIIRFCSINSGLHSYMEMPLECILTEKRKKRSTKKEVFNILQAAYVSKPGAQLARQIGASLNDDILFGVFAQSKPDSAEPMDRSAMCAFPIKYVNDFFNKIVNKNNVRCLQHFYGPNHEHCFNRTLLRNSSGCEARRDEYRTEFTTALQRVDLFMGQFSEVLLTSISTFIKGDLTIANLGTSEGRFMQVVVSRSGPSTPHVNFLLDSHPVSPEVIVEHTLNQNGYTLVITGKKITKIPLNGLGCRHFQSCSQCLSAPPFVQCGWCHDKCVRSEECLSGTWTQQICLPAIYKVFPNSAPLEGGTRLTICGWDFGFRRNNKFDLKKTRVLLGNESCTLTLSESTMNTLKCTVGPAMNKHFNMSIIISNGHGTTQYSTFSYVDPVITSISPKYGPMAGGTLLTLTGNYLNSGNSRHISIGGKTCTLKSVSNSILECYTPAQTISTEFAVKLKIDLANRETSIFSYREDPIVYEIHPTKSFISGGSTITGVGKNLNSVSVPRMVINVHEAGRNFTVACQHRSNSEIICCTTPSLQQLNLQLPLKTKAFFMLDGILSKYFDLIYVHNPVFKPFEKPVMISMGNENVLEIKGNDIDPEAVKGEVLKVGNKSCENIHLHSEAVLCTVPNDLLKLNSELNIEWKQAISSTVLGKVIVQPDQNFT

B1: AbF46, a mouse antibody to c-Met (antibody, V domains shown)
VH: EVKLVESGGGLVQPGGSLRLSCATSGFTFTDYYMSWVRQPPGKALEWLGFIRNKANGYTTEYSASVKGRFTISRDNSQSILYLQMDTLRAEDSATYYCARDNWFAYWGQGTLVTVSA
VL: DILMTQSPSSLTVSAGEKVTMSCKSSQSLLASGNQNNYLAWHQQKPGRSPKMLIIWASTRVSGVPDRFIGSGSGTDFTLTINSVQAEDLAVYYCQQSYSAPLTFGAGTKLELK
notes: Mouse monoclonal antibody from the single hybridoma clone chosen by ELISA; In the screening assay it was present as hybridoma culture supernatant; also called monoclonal antibody of hybridoma KCLRF-BP-00220
B1: binds.
